{
  "source": "IntAct's records for PubMed 19197237",
  "target": "pex14_human PEX14 (UniProt O75381)",
  "sequence (O75381 whole entry)": "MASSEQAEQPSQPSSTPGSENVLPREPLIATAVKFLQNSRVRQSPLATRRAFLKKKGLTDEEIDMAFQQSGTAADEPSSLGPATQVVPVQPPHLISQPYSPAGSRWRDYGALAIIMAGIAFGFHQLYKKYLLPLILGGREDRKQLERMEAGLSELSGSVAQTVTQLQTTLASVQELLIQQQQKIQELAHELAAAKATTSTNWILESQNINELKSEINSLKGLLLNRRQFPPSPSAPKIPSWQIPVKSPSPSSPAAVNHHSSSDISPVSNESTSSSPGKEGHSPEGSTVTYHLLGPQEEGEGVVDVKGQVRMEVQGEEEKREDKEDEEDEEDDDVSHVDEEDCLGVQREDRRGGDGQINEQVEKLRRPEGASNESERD",
  "data": [
    {"substance": "Peroxisomal targeting signal 1 receptor (Homo sapiens) (from UniProt P50542) E121D", "values": [
      {"measurement": "effect of a mutation on the interaction", "value": "disrupting interaction"}
    ]}
  ]
}
